# Source: the supplement of paper PMC10065799, “High-throughput profiling of sequence recognition by tyrosine kinases and SH2 domains using bacterial peptide display” (eLife, 2023)
# Biological target: EPHB2 (UniProt P29323)
# Assay: phosphorylation enrichment, bacterial display (enrichment ratio); higher = better substrate or ligand; peptides without Tyr show the background
# 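Also: 11-residue human phosphosite peptides and single-mutation variants displayed on the E. coli surface, counted by deep sequencing, each peptide's frequency after selection divided by its frequency in the unselected input library; frequency after pTyr selection over input frequency; kinase dosed for 20-30% of maximal phosphorylation in three min.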
# EPHB2, sequence (P29323 whole entry, looked up): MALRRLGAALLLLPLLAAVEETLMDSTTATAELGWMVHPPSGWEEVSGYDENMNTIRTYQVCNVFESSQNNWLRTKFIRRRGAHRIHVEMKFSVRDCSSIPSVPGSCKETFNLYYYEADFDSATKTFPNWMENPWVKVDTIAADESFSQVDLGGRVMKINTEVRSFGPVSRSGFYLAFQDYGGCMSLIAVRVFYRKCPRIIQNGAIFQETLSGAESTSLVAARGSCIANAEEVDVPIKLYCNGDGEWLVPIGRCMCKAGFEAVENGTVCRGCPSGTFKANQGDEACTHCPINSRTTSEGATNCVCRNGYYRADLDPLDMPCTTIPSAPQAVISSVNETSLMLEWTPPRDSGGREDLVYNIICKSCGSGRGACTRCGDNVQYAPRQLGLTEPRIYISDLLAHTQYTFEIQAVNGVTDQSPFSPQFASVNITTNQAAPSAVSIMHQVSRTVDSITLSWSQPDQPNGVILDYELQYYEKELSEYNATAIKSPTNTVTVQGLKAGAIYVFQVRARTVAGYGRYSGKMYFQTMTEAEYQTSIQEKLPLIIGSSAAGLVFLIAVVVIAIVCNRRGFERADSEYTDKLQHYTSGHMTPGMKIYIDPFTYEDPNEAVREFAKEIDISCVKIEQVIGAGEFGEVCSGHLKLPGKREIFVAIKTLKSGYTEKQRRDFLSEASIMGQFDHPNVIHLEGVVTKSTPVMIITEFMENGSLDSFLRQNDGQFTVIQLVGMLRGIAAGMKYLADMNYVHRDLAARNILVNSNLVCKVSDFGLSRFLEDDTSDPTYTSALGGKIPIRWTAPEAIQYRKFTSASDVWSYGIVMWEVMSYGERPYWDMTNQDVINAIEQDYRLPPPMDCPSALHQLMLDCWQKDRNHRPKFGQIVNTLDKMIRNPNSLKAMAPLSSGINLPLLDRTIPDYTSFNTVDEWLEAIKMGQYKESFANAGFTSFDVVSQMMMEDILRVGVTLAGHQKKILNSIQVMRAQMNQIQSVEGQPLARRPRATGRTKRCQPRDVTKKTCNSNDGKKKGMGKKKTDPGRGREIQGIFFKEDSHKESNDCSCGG
row,Sequence,phosphorylation enrichment
1,NETNKYQISVN [FGB_Y368_A365T],0.46
2,KLCHLYQDHMQ [WNT5A_Y86],0.53
3,KLKPIYFHTQG [AR_Y916_V912L],0.503
4,SDYSSYARTSI [TERT_Y949],2.84
5,EKGEEYGGGGG [TUBA1A_Y451_E447K],0.574
6,IQTDGYRAPEA [UHMK1_Y197],0.496
7,PLRPDYQEPSR [DDR2_Y481],0.636
8,LTPVKYLLSAT [GSDMC_Y26],0.412
9,KSAAIYNPVIY [RHO_Y301],0.744
10,GIVEDYRPTFY [ACVRL1_Y421_P424T],0.484
11,TSNQEYLFLSM [FGFR1_Y766_D768Y_YF],0.721
12,SGFESYGSSSY [RPA2_Y9],0.478
13,DNPAKYFILES [DPP10_Y512],0.567
14,NPPGMYPVTGP [LPP_Y346],0.325
15,TEDAEYDVQSK [PTCHD3_Y335_P333A],0.609
16,FDDIAYIQKTL [PIK3CA_Y1021_R1023Q],0.68
17,PSAELYSFALP [PDGFRB_Y716_N718Y_YF],11.8

row,Sequence,phosphorylation enrichment
1,EQQRAYLEGTC [HLA-C_Y183_L180Q],0.555
2,MIRSAYALRGL [CPS1_Y590_G593R],0.448
3,IGMIIYFARKA [VCAM1_Y718],2.23
4,CGQDPCIRELG [UROS_Y19_Y19C],0.508
5,SVTCTYSPALD [TP53_Y126_N131D],0.816
6,RGGDSYGGPPR [RBMX_Y190_R187G],0.5
7,WHHTFYNELRV [ACTA1_Y93],0.483
8,SSREGYVSHHN [FAM83B_Y433],0.321
9,ASTHIYQIMNH [ITK_Y588_V587I],2.63
10,SSQTVYQRVEG [TFR2_Y23],0.447
11,PEADKYCLTYA [FGG_Y300_R301C],0.599
12,QSMEPYTKQQL [STAT3_Y640_V637M],0.66
13,CTTIHYNYTCN [TP53_Y234_M237T],0.556
14,LKVQVYILGRE [ASS1_Y359_G356V],1.88
15,ANNQRYAFMPL [TMEM87B_Y460],0.591
16,SVVVPYEPPEF [TP53_Y220_V225F],0.524

# Biological target: MERTK (UniProt Q12866)
# Assay: as above
# MERTK, sequence (Q12866 whole entry, looked up): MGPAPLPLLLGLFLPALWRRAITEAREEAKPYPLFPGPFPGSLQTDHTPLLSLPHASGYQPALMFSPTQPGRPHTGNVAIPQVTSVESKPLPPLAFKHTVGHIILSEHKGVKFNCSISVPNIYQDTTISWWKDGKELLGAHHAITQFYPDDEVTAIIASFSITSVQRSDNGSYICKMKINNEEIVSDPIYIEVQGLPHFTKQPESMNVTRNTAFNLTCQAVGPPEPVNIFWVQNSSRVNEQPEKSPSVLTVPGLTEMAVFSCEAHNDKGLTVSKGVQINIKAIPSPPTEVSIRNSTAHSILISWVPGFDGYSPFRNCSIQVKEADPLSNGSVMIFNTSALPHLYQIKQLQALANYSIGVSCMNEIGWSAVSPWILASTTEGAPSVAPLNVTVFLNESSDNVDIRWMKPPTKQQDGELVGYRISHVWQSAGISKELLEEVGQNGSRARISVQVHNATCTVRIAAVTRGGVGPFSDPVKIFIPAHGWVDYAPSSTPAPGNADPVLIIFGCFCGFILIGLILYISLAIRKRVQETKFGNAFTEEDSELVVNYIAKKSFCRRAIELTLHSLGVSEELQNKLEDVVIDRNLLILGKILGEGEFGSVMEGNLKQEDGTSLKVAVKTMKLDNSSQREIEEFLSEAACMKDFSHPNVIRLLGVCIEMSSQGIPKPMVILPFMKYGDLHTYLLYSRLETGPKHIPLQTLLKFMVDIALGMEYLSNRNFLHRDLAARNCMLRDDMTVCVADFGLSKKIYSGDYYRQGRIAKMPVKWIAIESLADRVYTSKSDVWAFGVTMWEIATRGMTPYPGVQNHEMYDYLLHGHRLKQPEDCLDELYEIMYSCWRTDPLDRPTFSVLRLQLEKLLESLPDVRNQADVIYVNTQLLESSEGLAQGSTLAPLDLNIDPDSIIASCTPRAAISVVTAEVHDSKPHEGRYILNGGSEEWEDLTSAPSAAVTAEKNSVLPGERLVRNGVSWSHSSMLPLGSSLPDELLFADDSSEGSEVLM
row,Sequence,phosphorylation enrichment
1,NETNKYQISVN [FGB_Y368_A365T],0.418
2,KLCHLYQDHMQ [WNT5A_Y86],0.45
3,KLKPIYFHTQG [AR_Y916_V912L],0.4
4,SDYSSYARTSI [TERT_Y949],0.52
5,EKGEEYGGGGG [TUBA1A_Y451_E447K],0.296
6,IQTDGYRAPEA [UHMK1_Y197],0.491
7,PLRPDYQEPSR [DDR2_Y481],0.516
8,LTPVKYLLSAT [GSDMC_Y26],0.425
9,KSAAIYNPVIY [RHO_Y301],3.42
10,GIVEDYRPTFY [ACVRL1_Y421_P424T],0.404
11,TSNQEYLFLSM [FGFR1_Y766_D768Y_YF],0.469
12,SGFESYGSSSY [RPA2_Y9],0.382
13,DNPAKYFILES [DPP10_Y512],0.542
14,NPPGMYPVTGP [LPP_Y346],0.348
15,TEDAEYDVQSK [PTCHD3_Y335_P333A],0.492
16,FDDIAYIQKTL [PIK3CA_Y1021_R1023Q],0.529
17,PSAELYSFALP [PDGFRB_Y716_N718Y_YF],13.2

row,Sequence,phosphorylation enrichment
1,EQQRAYLEGTC [HLA-C_Y183_L180Q],0.521
2,MIRSAYALRGL [CPS1_Y590_G593R],0.423
3,IGMIIYFARKA [VCAM1_Y718],0.374
4,CGQDPCIRELG [UROS_Y19_Y19C],0.449
5,SVTCTYSPALD [TP53_Y126_N131D],0.466
6,RGGDSYGGPPR [RBMX_Y190_R187G],0.586
7,WHHTFYNELRV [ACTA1_Y93],0.587
8,SSREGYVSHHN [FAM83B_Y433],0.453
9,ASTHIYQIMNH [ITK_Y588_V587I],6.62
10,SSQTVYQRVEG [TFR2_Y23],0.499
11,PEADKYCLTYA [FGG_Y300_R301C],0.477
12,QSMEPYTKQQL [STAT3_Y640_V637M],0.579
13,CTTIHYNYTCN [TP53_Y234_M237T],0.403
14,LKVQVYILGRE [ASS1_Y359_G356V],1.36
15,ANNQRYAFMPL [TMEM87B_Y460],5.61
16,SVVVPYEPPEF [TP53_Y220_V225F],0.374

# Biological target: FGFR3 (UniProt P22607)
# Assay: as above
# FGFR3, sequence (P22607 whole entry, looked up): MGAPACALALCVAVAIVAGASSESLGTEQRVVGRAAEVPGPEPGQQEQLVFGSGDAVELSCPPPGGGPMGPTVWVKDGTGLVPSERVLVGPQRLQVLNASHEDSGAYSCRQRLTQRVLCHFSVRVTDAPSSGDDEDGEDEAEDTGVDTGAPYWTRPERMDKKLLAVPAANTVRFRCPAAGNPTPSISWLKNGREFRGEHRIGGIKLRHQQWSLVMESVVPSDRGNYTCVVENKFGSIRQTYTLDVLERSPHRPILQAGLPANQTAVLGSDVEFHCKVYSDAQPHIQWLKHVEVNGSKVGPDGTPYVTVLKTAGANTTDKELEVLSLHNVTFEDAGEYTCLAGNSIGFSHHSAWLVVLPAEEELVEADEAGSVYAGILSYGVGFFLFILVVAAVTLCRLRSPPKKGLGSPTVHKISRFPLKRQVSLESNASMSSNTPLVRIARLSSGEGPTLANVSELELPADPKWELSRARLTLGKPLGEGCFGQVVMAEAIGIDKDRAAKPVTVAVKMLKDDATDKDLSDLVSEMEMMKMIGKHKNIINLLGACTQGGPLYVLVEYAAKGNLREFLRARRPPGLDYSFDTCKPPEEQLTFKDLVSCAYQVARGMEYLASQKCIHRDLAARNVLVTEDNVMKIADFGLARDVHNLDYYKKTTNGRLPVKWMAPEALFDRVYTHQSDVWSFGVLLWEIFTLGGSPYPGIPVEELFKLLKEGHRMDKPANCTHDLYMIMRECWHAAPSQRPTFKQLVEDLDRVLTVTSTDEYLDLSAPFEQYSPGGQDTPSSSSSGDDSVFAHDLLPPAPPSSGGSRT
row,Sequence,phosphorylation enrichment
1,NETNKYQISVN [FGB_Y368_A365T],0.575
2,KLCHLYQDHMQ [WNT5A_Y86],0.514
3,KLKPIYFHTQG [AR_Y916_V912L],0.525
4,SDYSSYARTSI [TERT_Y949],0.7
5,EKGEEYGGGGG [TUBA1A_Y451_E447K],0.67
6,IQTDGYRAPEA [UHMK1_Y197],0.382
7,PLRPDYQEPSR [DDR2_Y481],0.768
8,LTPVKYLLSAT [GSDMC_Y26],0.508
9,KSAAIYNPVIY [RHO_Y301],1.25
10,GIVEDYRPTFY [ACVRL1_Y421_P424T],0.648
11,TSNQEYLFLSM [FGFR1_Y766_D768Y_YF],3.32
12,SGFESYGSSSY [RPA2_Y9],0.462
13,DNPAKYFILES [DPP10_Y512],0.715
14,NPPGMYPVTGP [LPP_Y346],0.396
15,TEDAEYDVQSK [PTCHD3_Y335_P333A],0.689
16,FDDIAYIQKTL [PIK3CA_Y1021_R1023Q],0.6
17,PSAELYSFALP [PDGFRB_Y716_N718Y_YF],5.36

row,Sequence,phosphorylation enrichment
1,EQQRAYLEGTC [HLA-C_Y183_L180Q],0.602
2,MIRSAYALRGL [CPS1_Y590_G593R],0.527
3,IGMIIYFARKA [VCAM1_Y718],0.72
4,CGQDPCIRELG [UROS_Y19_Y19C],0.569
5,SVTCTYSPALD [TP53_Y126_N131D],1.01
6,RGGDSYGGPPR [RBMX_Y190_R187G],0.58
7,WHHTFYNELRV [ACTA1_Y93],0.645
8,SSREGYVSHHN [FAM83B_Y433],0.464
9,ASTHIYQIMNH [ITK_Y588_V587I],0.624
10,SSQTVYQRVEG [TFR2_Y23],0.483
11,PEADKYCLTYA [FGG_Y300_R301C],1.09
12,QSMEPYTKQQL [STAT3_Y640_V637M],0.692
13,CTTIHYNYTCN [TP53_Y234_M237T],0.624
14,LKVQVYILGRE [ASS1_Y359_G356V],1.95
15,ANNQRYAFMPL [TMEM87B_Y460],0.566
16,SVVVPYEPPEF [TP53_Y220_V225F],0.598

# Biological target: Hck (UniProt P08631)
# Assay: as above
# Hck, sequence (P08631 whole entry, looked up): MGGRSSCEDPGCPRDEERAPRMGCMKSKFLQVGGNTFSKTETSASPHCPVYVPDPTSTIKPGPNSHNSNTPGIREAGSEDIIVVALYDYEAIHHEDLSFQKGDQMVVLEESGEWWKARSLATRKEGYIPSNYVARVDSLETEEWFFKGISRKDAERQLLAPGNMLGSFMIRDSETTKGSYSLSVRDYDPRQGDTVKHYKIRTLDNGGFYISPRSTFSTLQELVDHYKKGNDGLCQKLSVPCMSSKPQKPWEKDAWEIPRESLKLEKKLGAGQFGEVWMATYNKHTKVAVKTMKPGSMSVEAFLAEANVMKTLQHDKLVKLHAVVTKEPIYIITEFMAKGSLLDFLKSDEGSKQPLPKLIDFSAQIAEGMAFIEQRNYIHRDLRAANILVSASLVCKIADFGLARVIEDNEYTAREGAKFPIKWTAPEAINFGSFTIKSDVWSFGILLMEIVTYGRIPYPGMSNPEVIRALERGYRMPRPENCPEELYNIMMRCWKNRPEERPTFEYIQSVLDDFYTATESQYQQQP
row,Sequence,phosphorylation enrichment
1,NETNKYQISVN [FGB_Y368_A365T],0.412
2,KLCHLYQDHMQ [WNT5A_Y86],0.554
3,KLKPIYFHTQG [AR_Y916_V912L],0.364
4,SDYSSYARTSI [TERT_Y949],0.862
5,EKGEEYGGGGG [TUBA1A_Y451_E447K],0.63
6,IQTDGYRAPEA [UHMK1_Y197],0.717
7,PLRPDYQEPSR [DDR2_Y481],0.57
8,LTPVKYLLSAT [GSDMC_Y26],0.429
9,KSAAIYNPVIY [RHO_Y301],8.17
10,GIVEDYRPTFY [ACVRL1_Y421_P424T],0.475
11,TSNQEYLFLSM [FGFR1_Y766_D768Y_YF],0.572
12,SGFESYGSSSY [RPA2_Y9],0.474
13,DNPAKYFILES [DPP10_Y512],0.51
14,NPPGMYPVTGP [LPP_Y346],0.375
15,TEDAEYDVQSK [PTCHD3_Y335_P333A],0.591
16,FDDIAYIQKTL [PIK3CA_Y1021_R1023Q],0.488
17,PSAELYSFALP [PDGFRB_Y716_N718Y_YF],6.93

row,Sequence,phosphorylation enrichment
1,EQQRAYLEGTC [HLA-C_Y183_L180Q],0.556
2,MIRSAYALRGL [CPS1_Y590_G593R],0.491
3,IGMIIYFARKA [VCAM1_Y718],1.09
4,CGQDPCIRELG [UROS_Y19_Y19C],0.423
5,SVTCTYSPALD [TP53_Y126_N131D],0.656
6,RGGDSYGGPPR [RBMX_Y190_R187G],0.656
7,WHHTFYNELRV [ACTA1_Y93],0.997
8,SSREGYVSHHN [FAM83B_Y433],0.354
9,ASTHIYQIMNH [ITK_Y588_V587I],5.65
10,SSQTVYQRVEG [TFR2_Y23],0.77
11,PEADKYCLTYA [FGG_Y300_R301C],0.601
12,QSMEPYTKQQL [STAT3_Y640_V637M],0.696
13,CTTIHYNYTCN [TP53_Y234_M237T],0.416
14,LKVQVYILGRE [ASS1_Y359_G356V],1.49
15,ANNQRYAFMPL [TMEM87B_Y460],0.393
16,SVVVPYEPPEF [TP53_Y220_V225F],0.461
